Here are results for 3 substances from paper PMC1253830.

Common to all, as to assay: two-hybrid
Assay [1] addresses pGBKT7-CcLim15 (Coprinus cinereus Lim15/Dmc1, residues 1-345, fused to the GAL4 DNA-binding domain) (Coprinus cinereus).
For assay [2], the target named is pGBKT7-CcLim15CT 104-345 (Coprinus cinereus).
For assay [3], the target named is pGBKT7-CcLim15NT 1-104 (Coprinus cinereus).

Consider “pGADT7-CcTopIICT 1066-1569 (domain or fragment)”, for which the β-galactosidase activity in assay [1] is 16.5; in assay [2], 3.49; in assay [3], < 1.
As for “pGADT7-CcTopIIMD 751-1065 (domain or fragment)”, the β-galactosidase activity in assay [1] was < 1.
For the substance “pGADT7-CcTopIINT 1-750 (domain or fragment)”, the β-galactosidase activity in assay [1] was < 1.
